Experimental data: patent US20100291638

How the values were obtained:
Settings in all cases: dNTP incorporation; background <500
[1] = system: T1, DNA polymerase clone 1128 (uncultured hot spring virus (Great Boiling Spring))
T1 sequence: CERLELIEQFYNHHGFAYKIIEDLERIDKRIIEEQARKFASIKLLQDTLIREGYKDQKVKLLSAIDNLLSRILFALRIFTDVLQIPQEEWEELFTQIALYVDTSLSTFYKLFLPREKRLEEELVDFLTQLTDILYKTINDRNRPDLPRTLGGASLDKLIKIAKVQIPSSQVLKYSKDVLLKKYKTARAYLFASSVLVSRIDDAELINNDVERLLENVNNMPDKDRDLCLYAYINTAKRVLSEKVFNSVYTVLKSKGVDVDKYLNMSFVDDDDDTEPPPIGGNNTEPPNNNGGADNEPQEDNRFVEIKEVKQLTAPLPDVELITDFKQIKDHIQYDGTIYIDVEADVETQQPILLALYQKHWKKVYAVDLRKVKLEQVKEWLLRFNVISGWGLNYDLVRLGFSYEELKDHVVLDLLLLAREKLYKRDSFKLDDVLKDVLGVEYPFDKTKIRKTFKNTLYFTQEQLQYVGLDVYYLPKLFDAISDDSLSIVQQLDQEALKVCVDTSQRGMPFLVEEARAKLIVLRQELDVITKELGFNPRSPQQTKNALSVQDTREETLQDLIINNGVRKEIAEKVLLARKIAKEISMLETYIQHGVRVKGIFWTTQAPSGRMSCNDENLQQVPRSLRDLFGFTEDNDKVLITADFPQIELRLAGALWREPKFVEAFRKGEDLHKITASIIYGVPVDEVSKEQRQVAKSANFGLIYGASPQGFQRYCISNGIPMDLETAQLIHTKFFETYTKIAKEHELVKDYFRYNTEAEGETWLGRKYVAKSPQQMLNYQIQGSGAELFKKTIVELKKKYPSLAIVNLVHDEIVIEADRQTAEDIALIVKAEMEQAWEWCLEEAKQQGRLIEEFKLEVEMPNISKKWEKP

[2] = system: T2, DNA polymerase clone 1773 (uncultured hot spring virus (Great Boiling Spring))
T2 sequence: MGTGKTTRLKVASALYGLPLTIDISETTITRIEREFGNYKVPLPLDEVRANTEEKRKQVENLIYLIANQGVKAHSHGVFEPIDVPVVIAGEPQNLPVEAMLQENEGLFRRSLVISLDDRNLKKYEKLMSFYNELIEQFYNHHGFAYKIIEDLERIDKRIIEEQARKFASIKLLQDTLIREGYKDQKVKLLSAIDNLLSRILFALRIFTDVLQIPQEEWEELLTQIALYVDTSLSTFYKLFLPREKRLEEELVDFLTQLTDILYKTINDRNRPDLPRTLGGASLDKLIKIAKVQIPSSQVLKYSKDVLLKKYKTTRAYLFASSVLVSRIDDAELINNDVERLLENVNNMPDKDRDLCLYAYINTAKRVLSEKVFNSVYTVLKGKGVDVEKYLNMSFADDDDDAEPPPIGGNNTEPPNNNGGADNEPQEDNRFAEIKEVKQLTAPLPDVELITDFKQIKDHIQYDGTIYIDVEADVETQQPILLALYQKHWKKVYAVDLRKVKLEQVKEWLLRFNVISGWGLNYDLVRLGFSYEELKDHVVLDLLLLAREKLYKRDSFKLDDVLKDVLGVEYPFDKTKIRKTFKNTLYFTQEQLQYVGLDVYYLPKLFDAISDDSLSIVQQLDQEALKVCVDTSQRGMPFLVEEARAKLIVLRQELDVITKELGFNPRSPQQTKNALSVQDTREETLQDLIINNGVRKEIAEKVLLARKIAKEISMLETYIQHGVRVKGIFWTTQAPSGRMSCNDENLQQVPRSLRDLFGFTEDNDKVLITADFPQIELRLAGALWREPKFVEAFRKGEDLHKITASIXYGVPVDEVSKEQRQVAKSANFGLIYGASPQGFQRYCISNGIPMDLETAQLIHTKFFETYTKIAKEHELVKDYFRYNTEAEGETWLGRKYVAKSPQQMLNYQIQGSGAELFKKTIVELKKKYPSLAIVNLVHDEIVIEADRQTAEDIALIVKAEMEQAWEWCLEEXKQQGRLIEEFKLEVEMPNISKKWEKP

[3] = system: T3, DNA polymerase clone 1753 (uncultured hot spring virus (Great Boiling Spring))
T3 sequence: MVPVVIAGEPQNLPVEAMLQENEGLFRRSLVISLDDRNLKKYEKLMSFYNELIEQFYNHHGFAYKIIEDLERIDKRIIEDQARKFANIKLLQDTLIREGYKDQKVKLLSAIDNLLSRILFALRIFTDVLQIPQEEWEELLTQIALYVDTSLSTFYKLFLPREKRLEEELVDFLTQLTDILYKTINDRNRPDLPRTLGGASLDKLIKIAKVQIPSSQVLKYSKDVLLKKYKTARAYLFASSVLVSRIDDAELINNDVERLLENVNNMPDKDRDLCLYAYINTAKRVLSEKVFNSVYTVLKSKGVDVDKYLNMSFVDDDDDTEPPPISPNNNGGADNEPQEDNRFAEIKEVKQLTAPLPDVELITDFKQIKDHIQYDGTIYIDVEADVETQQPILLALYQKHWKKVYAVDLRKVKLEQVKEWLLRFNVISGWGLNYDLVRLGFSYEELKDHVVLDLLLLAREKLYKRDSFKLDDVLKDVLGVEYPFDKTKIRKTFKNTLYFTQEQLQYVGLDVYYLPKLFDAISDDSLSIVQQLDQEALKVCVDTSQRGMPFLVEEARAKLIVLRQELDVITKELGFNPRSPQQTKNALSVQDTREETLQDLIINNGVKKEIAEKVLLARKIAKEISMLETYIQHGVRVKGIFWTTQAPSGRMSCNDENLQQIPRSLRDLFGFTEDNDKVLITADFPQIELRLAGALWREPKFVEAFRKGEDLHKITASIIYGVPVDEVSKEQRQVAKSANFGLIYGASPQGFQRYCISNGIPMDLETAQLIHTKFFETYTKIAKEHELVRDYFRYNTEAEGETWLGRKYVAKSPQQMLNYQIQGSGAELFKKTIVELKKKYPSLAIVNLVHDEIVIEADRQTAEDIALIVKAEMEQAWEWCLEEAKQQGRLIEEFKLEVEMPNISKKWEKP

Question: For activated calf thymus DNA, which activity [1] is on record?
Answer: 16400 cpm

Question: What about the activity [2] of the same substance?
Answer: 124000 cpm

Question: What about the activity [3] of the same substance?
Answer: 141000 cpm
